Measured values published in article PMC10598209 (Nature Communications, 2023).
Blank lines part the entries; values can stand above or below the binder they belong to.

What was measured:
RPA32C, RPA32(172−270) [1] = target: T1, RPA32C, RPA32(172−270) (human, UniProt P15927 172-270); experiment: NMR titration; 1H-15N HSQC of 50 or 100 μM 15N-labelled protein (RECQ4 or RPA) with step-wise addition or an excess of the unlabelled partner; buffer and temperature in Supplementary Table 6; conditions: both partners purified
T1 construct: Used 15N-labelled or unlabelled in NMR; unlabelled in ITC; also called RPA32C domain; source: E. coli BL21(DE3), purified (IMAC, TEV cleavage, second IMAC, Superdex 75); not shown: His6, N-terminal, cleaved

sRSM, RECQ4(358-388) [2] = target: T2, sRSM, RECQ4(358-388) (Homo sapiens, UniProt O94761); experiment: stopped-flow/CD/NMR/light scattering global fit; Kd,1: initial 1:1 complex; FA: 25 mM KPO4 pH 6.5, 70 mM KCl (or 500 mM NaCl), 25 C; ITC: same low-salt buffer, 30 C; NMR dsDNA: 50 mM NaPO4 pH 6.0, 150 mM NaCl, 298 K; NMR G4: 25 mM KPO4; conditions: intramolecular parallel G4
T2 chain: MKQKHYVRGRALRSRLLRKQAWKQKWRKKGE

RSM, RECQ4(348-388) [3] = target: T3, RSM, RECQ4(348-388) (Homo sapiens, UniProt O94761); experiment: ITC; 70 mM KCl, pH 6.5, 30 C; FA: 25 mM KPO4 pH 6.5, 70 mM KCl (or 500 mM NaCl), 25 C; ITC: same low-salt buffer, 30 C; NMR dsDNA: 50 mM NaPO4 pH 6.0, 150 mM NaCl, 298 K; NMR G4: 25 mM KPO4; conditions: protein: recombinant, tags: N-terminal His6-TEV construct (pET-M11)
T3 chain: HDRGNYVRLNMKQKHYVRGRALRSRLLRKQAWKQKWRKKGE

RSM, RECQ4(348-388) [4] = target: T3, RSM, RECQ4(348-388); experiment: NMR 2D lineshape analysis (competition with RPA32C); 150 mM NaCl, pH 6.0, 298 K; kon 1.5e10 M-1 s-1; FA: 25 mM KPO4 pH 6.5, 70 mM KCl (or 500 mM NaCl), 25 C; ITC: same low-salt buffer, 30 C; NMR dsDNA: 50 mM NaPO4 pH 6.0, 150 mM NaCl, 298 K; NMR G4: 25 mM KPO4; conditions: protein: recombinant; tags: N-terminal His6-TEV construct (pET-M11); label: 5' FITC on strand 1 (FA); blunt
RECQ4(322-400) [5] = target: T4, RECQ4(322-400) (Homo sapiens, UniProt O94761 322-400); experiment: NMR; only RSM residues affected; FA: 25 mM KPO4 pH 6.5, 70 mM KCl (or 500 mM NaCl), 25 C; ITC: same low-salt buffer, 30 C; NMR dsDNA: 50 mM NaPO4 pH 6.0, 150 mM NaCl, 298 K; NMR G4: 25 mM KPO4; conditions: protein: recombinant; tags: N-terminal His6-TEV construct (pET-M11); label: 5' FITC on strand 1 (FA); blunt
T4 sequence: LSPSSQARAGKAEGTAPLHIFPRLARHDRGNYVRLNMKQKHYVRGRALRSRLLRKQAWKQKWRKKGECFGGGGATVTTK

RSM, RECQ4(348-388) [6] = target: T3, RSM, RECQ4(348-388); experiment: fluorescence anisotropy; low ionic strength (70 mM KCl); FA: 25 mM KPO4 pH 6.5, 70 mM KCl (or 500 mM NaCl), 25 C; ITC: same low-salt buffer, 30 C; NMR dsDNA: 50 mM NaPO4 pH 6.0, 150 mM NaCl, 298 K; NMR G4: 25 mM KPO4; conditions: protein: recombinant, tags: N-terminal His6-TEV construct (pET-M11)
RECQ4(322-400) [7] = target: T4, RECQ4(322-400); experiment: EMSA; profile indistinguishable from RSM and sRSM; FA: 25 mM KPO4 pH 6.5, 70 mM KCl (or 500 mM NaCl), 25 C; ITC: same low-salt buffer, 30 C; NMR dsDNA: 50 mM NaPO4 pH 6.0, 150 mM NaCl, 298 K; NMR G4: 25 mM KPO4; conditions: protein: recombinant; tags: N-terminal His6-TEV construct (pET-M11); label: 5' FITC on strand 1; blunt
sRSM, RECQ4(358-388) [8] = target: T2, sRSM, RECQ4(358-388); experiment: EMSA; FA: 25 mM KPO4 pH 6.5, 70 mM KCl (or 500 mM NaCl), 25 C; ITC: same low-salt buffer, 30 C; NMR dsDNA: 50 mM NaPO4 pH 6.0, 150 mM NaCl, 298 K; NMR G4: 25 mM KPO4; conditions: label: 5' FITC on strand 1; blunt
RSM, RECQ4(348-388) [9] = target: T3, RSM, RECQ4(348-388); experiment: as above; conditions: protein: recombinant; tags: N-terminal His6-TEV construct (pET-M11); label: 5' FITC on strand 1; blunt
RSM, RECQ4(348-388) [10] = target: T3, RSM, RECQ4(348-388); experiment: NMR; 300 mM NaCl, pH 6.0, 288 K; FA: 25 mM KPO4 pH 6.5, 70 mM KCl (or 500 mM NaCl), 25 C; ITC: same low-salt buffer, 30 C; NMR dsDNA: 50 mM NaPO4 pH 6.0, 150 mM NaCl, 298 K; NMR G4: 25 mM KPO4; conditions: protein: recombinant; tags: N-terminal His6-TEV construct (pET-M11); 10 bp duplex with unpaired TTTT arms (3' of strand 1, 5' of strand 2)
RSM, RECQ4(348-388) [11] = target: T3, RSM, RECQ4(348-388); experiment: fluorescence anisotropy; low ionic strength (70 mM KCl); submicromolar; FA: 25 mM KPO4 pH 6.5, 70 mM KCl (or 500 mM NaCl), 25 C; ITC: same low-salt buffer, 30 C; NMR dsDNA: 50 mM NaPO4 pH 6.0, 150 mM NaCl, 298 K; NMR G4: 25 mM KPO4; conditions: protein: recombinant, tags: N-terminal His6-TEV construct (pET-M11)
RPA32C, RPA32(172−270) [12] = target: T1, RPA32C, RPA32(172−270); experiment: NMR titration; 2D lineshape analysis (TITAN v1.6) of 1H-15N HSQC titrations of 50 μM 15N RSM with RPA32C (up to 16× excess) and dsDNA (up to 4× excess) and their competition; four titrations, 24 spectra, 16 residues fitted globally to a competitive binding model; conditions: both partners purified
RSM 5E mutant = target: T5, RSM 5E mutant (Homo sapiens, UniProt O94761 348-388, R375E;K376E;K380E;K382E;R384E); experiment: NMR; binding not detectable, no droplets; FA: 25 mM KPO4 pH 6.5, 70 mM KCl (or 500 mM NaCl), 25 C; ITC: same low-salt buffer, 30 C; NMR dsDNA: 50 mM NaPO4 pH 6.0, 150 mM NaCl, 298 K; NMR G4: 25 mM KPO4; conditions: protein: recombinant; tags: N-terminal His6-TEV construct (pET-M11); label: 5' FITC (FA); intramolecular hybrid G4
T5 chain: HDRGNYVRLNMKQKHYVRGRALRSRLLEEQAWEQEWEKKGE

sRSM, RECQ4(358-388) [13] = target: T2, sRSM, RECQ4(358-388); experiment: NMR; largest CSP at 5'-end G-tetrad; FA: 25 mM KPO4 pH 6.5, 70 mM KCl (or 500 mM NaCl), 25 C; ITC: same low-salt buffer, 30 C; NMR dsDNA: 50 mM NaPO4 pH 6.0, 150 mM NaCl, 298 K; NMR G4: 25 mM KPO4; conditions: label: 5' FITC (FA); intramolecular hybrid G4
[14] = label: 5' FITC (FA), intramolecular hybrid G4

T1 sequence (P15927 172-270): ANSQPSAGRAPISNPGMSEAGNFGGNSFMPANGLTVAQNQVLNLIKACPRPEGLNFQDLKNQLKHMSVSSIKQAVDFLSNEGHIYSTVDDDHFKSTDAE

binding result (RPA32C, RPA32(172−270) [1]): binds
B1: RECQ4(322–400) (domain or fragment, human, UniProt O94761 322-400, looked up)
chain: LSPSSQARAGKAEGTAPLHIFPRLARHDRGNYVRLNMKQKHYVRGRALRSRLLRKQAWKQKWRKKGECFGGGGATVTTK
notes: Used 15N-labelled or unlabelled in NMR; source: E. coli BL21(DE3), purified (IMAC, TEV cleavage, Mono S, Superdex 75); not shown: His6, N-terminal, cleaved

Binder: TTGGGTGGGTGGGTGGGT (structured_DNA) [T95-2T parallel G4]
Kd (sRSM, RECQ4(358-388) [2]): 3100 ± 200 nM
Kd (RSM, RECQ4(348-388) [3]; intramolecular parallel G4): 200 ± 80 nM

B2: ds10 (dsDNA)
DNA 1: CAGCGCTCGG
DNA 2: CCGAGCGCTG
Kd (RSM, RECQ4(348-388) [4]): 6300 ± 600 nM
binding result (RECQ4(322-400) [5]): binds
Kd (RSM, RECQ4(348-388) [6]; label: 5' FITC on strand 1 (FA), blunt): ~1000 nM

B3: ds49 (dsDNA)
DNA 1: AGCTACCATGCCTGCACGAATTAAGCAATTCGTAATCATGGTCATAGCT
DNA 2: AGCTATGACCATGATTACGAATTGCTTAATTCGTGCAGGCATGGTAGCT
binding result (RECQ4(322-400) [7]): binds
binding result (sRSM, RECQ4(358-388) [8]): binds
binding result (RSM, RECQ4(348-388) [9]): binds

B4: splayed-arm Y14 (dsDNA)
DNA 1: CAGCGCTCGGTTTT
DNA 2: TTTTCCGAGCGCTG
binding result (RSM, RECQ4(348-388) [10]): binds

Binder: AGGGGGGAGGGAGGGTGG (structured_DNA) [CEB1 parallel G4]
Kd (RSM, RECQ4(348-388) [11]; label: 5' FITC or Cy3 (FA, EMSA), parallel G4): < 1000 nM

Kd (RPA32C, RPA32(172−270) [12]): 117000 nM
kon (RPA32C, RPA32(172−270) [12]): 2.4e+08 M⁻¹ s⁻¹
B5: RECQ4-specific motif (RSM), RECQ4(348–388) (domain or fragment, human, UniProt O94761 348-388, looked up)
chain: HDRGNYVRLNMKQKHYVRGRALRSRLLRKQAWKQKWRKKGE
notes: H. sapiens RECQ4 residues 348-388 (RSM), cloned in pET-M11; Used 15N-labelled or unlabelled in NMR; unlabelled in ITC; source: E. coli BL21(DE3), purified (IMAC, TEV cleavage, Mono S, Superdex 75); not shown: His6, N-terminal, cleaved

binding result (RPA32C, RPA32(172−270) [1]): binds
B6: RSM W379A/W383A (domain or fragment, human, UniProt O94761 348-388, looked up)
chain: HDRGNYVRLNMKQKHYVRGRALRSRLLRKQAAKQKARKKGE
notes: H. sapiens RECQ4 residues 348-388 with W379A and W383A, made from the RECQ4(348–388) expression vector; also called RSM double tryptophan mutant; source: E. coli BL21(DE3), purified; not shown: His6, N-terminal, cleaved

Binder: TTGGGTTAGGGTTAGGGTTAGGGA (structured_DNA) [HT hybrid G4]
Kd (RSM, RECQ4(348-388) [11]; [14]): < 1000 nM
binding result (RSM 5E mutant): no binding
Kd (RSM, RECQ4(348-388) [3]; [14]): 420 ± 140 nM
binding result (sRSM, RECQ4(358-388) [13]): binds

Binder: CAGCGCTCGG (ssDNA) [ss10]
Kd (RSM, RECQ4(348-388) [6]; label: 5' FITC (FA)): ~1000 nM
